In the test the target is T1, S. cerevisiae eIF4E (S. cerevisiae, UniProt P07260 1-213).
T1 construct: eIF4E of S. cerevisiae; 15N isotope labelled; m7GTP added to 250 μM in the NMR sample; source: E. coli BL21-star, purified (nickel resin, TEV cleavage, m7G cap resin)
T1 sequence (looked up): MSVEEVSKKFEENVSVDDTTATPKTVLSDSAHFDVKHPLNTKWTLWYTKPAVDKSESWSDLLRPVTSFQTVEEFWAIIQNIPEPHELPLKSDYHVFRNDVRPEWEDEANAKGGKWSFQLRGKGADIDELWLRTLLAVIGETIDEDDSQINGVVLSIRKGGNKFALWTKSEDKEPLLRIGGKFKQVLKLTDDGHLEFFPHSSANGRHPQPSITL
Kind of test: NMR titration; 15N HSQC of 200 μM 15N eIF4E with 250 μM m7GTP, peptide added to 1 mM; 50 mM phosphate pH 6.5, 50 mM KCl, 10% D2O, 298 K, 900 MHz. To be noted: both partners purified.

B1: 4E-BP1 peptide (human 4E-BP1 amino acids 51–67) (peptide)
peptide: RIIYDRKFLMECRNSPV
notes: 4E-BP1, human, amino acids 51–67; Dissolved at 50 mM in DMSO; source: synthetic peptide (Elim Bio)
Take B1: the binding result is on record as “binds”.

Source of the values: doi:10.1101/2023.09.14.557805, “Determinants of DDX3X sensitivity uncovered using a helicase activity in translation reporter” (bioRxiv, 2023).
